Test results as given in publication PMC5127646.

Target: RBM5 OCRE domain (residues 451-511), wild type (human) (UniProt P52756)
Assay: ITC; Sm tail constructs with wild type OCRE; SmN constructs (1 mM) titrated into OCRE (100 μM); ITC200, 24°C, 20 mM sodium phosphate pH 6.5, 50 mM NaCl; duplicates

Chain of RBM5 OCRE domain (residues 451-511), wild type (human) (P52756 other isoform, or with tags, fused parts or gaps): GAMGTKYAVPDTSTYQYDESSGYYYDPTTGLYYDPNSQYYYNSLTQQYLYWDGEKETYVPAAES

Row | Kd [µM] | Substance
1 | 20 | SmB 167-231 4P→4A (from UniProt P14678-2 167-231) (domain or fragment)
2 | 66.5 | SmN 167-240 R1→E1 (from UniProt P63162 167-240) (domain or fragment)
3 | 150 | SmN 167-240 R1/R2→E1/E2 (from UniProt P63162 167-240) (domain or fragment)
4 | 159 | SmB 167-231 R1/R2→E1/E2 (from UniProt P14678-2 167-231) (domain or fragment)
5 | 74 | SmN 167-240 R2→E2 (from UniProt P63162 167-240) (domain or fragment)
